# From the Immune Epitope Database (IEDB)
# What was measured:
# Experiment in all cases: IEDB peptide-MHC binding, purified MHC/competitive/radioactivity; filed as Kd, often an IC50 or EC50 that approximates it; ≥ and ≤ were set here for values at or beyond the usual limits of such assays
# HLA-A*33:01 = molecular target: HLA-A*33:01
# HLA-A*03:01 = molecular target: HLA-A*03:01
# HLA-A*31:01 = molecular target: HLA-A*31:01
# HLA-A*11:01 = molecular target: HLA-A*11:01
# HLA-A*68:01 = molecular target: HLA-A*68:01
# HLA-A*02:03 = molecular target: HLA-A*02:03
# HLA-A*02:06 = molecular target: HLA-A*02:06
# [1] = source organism: SARS coronavirus Tor2
# [2] = source organism: Vaccinia virus WR
# [3] = source organism: Dengue virus 4 Philippines/H241/1956
# [4] = source organism: Vaccinia virus Copenhagen
# [5] = source organism: Dengue virus 2 Jamaica/1409/1983
# [6] = source organism: Mammarenavirus juninense
# [7] = source organism: Lassa virus Josiah
Sequence,Kd (HLA-A*33:01; [2]) [nM],Kd (HLA-A*03:01; [2]) [nM],Kd (HLA-A*31:01; [2]) [nM],Kd (HLA-A*11:01; [2]) [nM],Kd (HLA-A*68:01; [2]) [nM],other results
TQSRDLEDFK,–,–,–,–,–,Kd (HLA-A*33:01; [1]): ≥ 70000 nM; Kd (HLA-A*03:01; [1]): 19300 nM; Kd (HLA-A*31:01; [1]): 14600 nM; Kd (HLA-A*11:01; [1]): 12500 nM; Kd (HLA-A*68:01; [1]): ≥ 29000 nM
VIILAALFMY,≥ 70000,2660,≥ 70000,449,≥ 51800,–
SLFKNVRLLK,2210,5.13,118,13.2,335,–
YLSSRAKLA,–,–,–,–,–,Kd (HLA-A*02:03; [3]): 36 nM
KTKISVEKIK,≥ 70000,4200,818,275,≥ 24700,–
IVTDLENRLK,≥ 26700,25.4,548,309,310,–
EARIVDKFGK,≥ 20500,7730,633,2570,101,–
QLMYALEPR,–,–,–,–,–,Kd (HLA-A*33:01; [4]): 17300 nM; Kd (HLA-A*03:01; [4]): 15200 nM; Kd (HLA-A*31:01; [4]): 12800 nM; Kd (HLA-A*11:01; [4]): 2460 nM; Kd (HLA-A*68:01; [4]): 2950 nM
VILQNAWKV,–,–,–,–,–,Kd (HLA-A*02:06; [5]): 4.45 nM
RAIMATIQR,–,–,–,–,–,Kd (HLA-A*33:01; [1]): 7140 nM; Kd (HLA-A*03:01; [1]): 2720 nM; Kd (HLA-A*31:01; [1]): 45.7 nM; Kd (HLA-A*11:01; [1]): 90.9 nM; Kd (HLA-A*68:01; [1]): 72 nM
RLLHCVTESY,6940,72.7,31.3,40.2,598,–
VAFELWAKR,–,–,–,–,–,Kd (HLA-A*33:01; [1]): 52 nM; Kd (HLA-A*03:01; [1]): 9440 nM; Kd (HLA-A*31:01; [1]): 76.9 nM; Kd (HLA-A*11:01; [1]): 3270 nM; Kd (HLA-A*68:01; [1]): 23.4 nM
VLDMCAALK,–,–,–,–,–,Kd (HLA-A*33:01; [1]): 13600 nM; Kd (HLA-A*03:01; [1]): 17.6 nM; Kd (HLA-A*31:01; [1]): 2350 nM; Kd (HLA-A*11:01; [1]): 44.9 nM; Kd (HLA-A*68:01; [1]): 2520 nM
MRYTCLNSEK,–,–,–,–,–,Kd (HLA-A*33:01; [6]): 6780 nM; Kd (HLA-A*03:01; [6]): 283 nM; Kd (HLA-A*31:01; [6]): 5030 nM; Kd (HLA-A*11:01; [6]): ≥ 49100 nM; Kd (HLA-A*68:01; [6]): 10100 nM
RTTWAFCEV,–,–,–,–,–,Kd (HLA-A*02:06; [3]): 23.1 nM
DIVNNFITK,≥ 26800,≥ 40800,≥ 29200,1010,86.4,–
LLVAHYAII,–,–,–,–,–,Kd (HLA-A*02:03; [5]): 27.3 nM
MLQKEYMER,–,–,–,–,–,Kd (HLA-A*33:01; [7]): 193 nM; Kd (HLA-A*03:01; [7]): 11000 nM; Kd (HLA-A*31:01; [7]): 100 nM; Kd (HLA-A*11:01; [7]): 1360 nM; Kd (HLA-A*68:01; [7]): 33.3 nM
IVTFRERYSY,14300,469,194,144,1020,–
